Data on 167 variants can be found in the RNAGym collection of RNA variant scans (doi:10.7554/elife.90254).

To fix the notation:
B1: OR4K15 (parent)
chain: GUUAACGGUCAUAGGCCAUGGAAACUAGGAGCACCAUUUCGCUGCCAGUGAAGAAAUGAACAAAGAAAAUCUGGGCCAGGCAGGCAUCAAAAGAAAUAGUCUUGCGCUCAACCAGAAAGUCUGUAAUCAUUUUAAGGGUA

In this data set the parent is B1. Put plainly: self-cleavage, relative activity (ratio to wild type); higher = more cleavage; in vitro, sequencing; the parent is a self-cleaving ribozyme.
On to G74A A78G, for which the self-cleavage came to 0.21.
In the case of U70G U102C, the self-cleavage is 0.64.
As to U72C G136C, the self-cleavage was 0.31.
For the variant A78U A116G, the self-cleavage turned out to be 0.14.
For U70G U103C, the self-cleavage was 1.08.
With G74A A82U the figure was 0.32; with A78U A118G, 0.49; with U72G A111U, 0.04.
As to A78G A92G, the self-cleavage was determined as 0.13.
Regarding U70C G119A, the self-cleavage worked out at 1.49.
On to G74C U139C, for which the self-cleavage amounted to 0.15.
On to G74U, for which the self-cleavage turned out to be 0.05.
Turning to G74A, the self-cleavage is 0.12.
On to G74C, for which the self-cleavage came out at 0.19.
With C76A G104A the figure was 0.03; with U72A U127G, 0.23.
U72C A140C: the self-cleavage is 0.44.
On to C77A U131C, for which the self-cleavage came to 0.5.
As for C76U U124A, the self-cleavage stood at 0.02.
With A78U A98U the figure was 0.71; with U72C G104A, 0.01.
With U70G A82U, the self-cleavage stood at 0.2.
For the variant U70C A129G, the self-cleavage amounted to 0.33.
As for U72A A118G, the self-cleavage was 0.12.
Take G75U A90U: the self-cleavage worked out at 0.12.
With U72C U130C, the self-cleavage was found to be 0.16.
Consider A78U U108C, for which the self-cleavage was determined as 0.01.
Turning to U72C U139C, the self-cleavage is 0.46.
Take U72C U139A: the self-cleavage was determined as 0.24.
Take A78U A111U: the self-cleavage came to 0.04.
With G74A U120C the figure was 0.1; with U72G U120A, 0.19; with G75U A135G, 0.16.
With C76U U108C the figure was 0; with G75A A116G, 0.06.
On to C76U A140G, for which the self-cleavage was determined as 0.12.
With G73U A86C the figure was 0.19.
Turning to U70C A116U, the self-cleavage is 0.34.
With U72C U100C, the self-cleavage worked out at 0.34.
For the variant U72C A94C, the self-cleavage was determined as 0.1.
As to U72C A94G, the self-cleavage amounted to 0.07.
On to G73A A86G, for which the self-cleavage was 0.05.
For the variant U72A U103C, the self-cleavage came to 0.14.
As to G75A A114U, the self-cleavage amounted to 0.02.
With G75A A114G the figure was 0.04; with C71U A89G, 0.52; with G75C A111G, 0.
With C77A A114G the figure was 0.32; with A78C, 0.18; with A78G, 0.22.
As to A78U, the self-cleavage turned out to be 0.36.
With U72C A126U the figure was 0.4.
With U72C A126G, the self-cleavage was 0.12.
For U70C U122C, the self-cleavage came out at 0.09.
For the variant U72A A111G, the self-cleavage worked out at 0.02.
With U70C A134G, the self-cleavage was found to be 0.72.
As to U72G A92G, the self-cleavage turned out to be 0.42.
Regarding G74U U97C, the self-cleavage was found to be 0.22.
Turning to G74A U131C, the self-cleavage is 0.19.
Take C71A A86G: the self-cleavage worked out at 0.28.
Regarding C71A U120C, the self-cleavage was 0.24.
On to C71A U97C, for which the self-cleavage came to 0.18.
With A78U G115U the figure was 0.03.
Regarding A78U G119A, the self-cleavage came out at 0.39.
U70C A117G: the self-cleavage was 1.21.
With A78G U133C the figure was 0.27; with C71A A95G, 0.88.
With A78C G79A, the self-cleavage is 0.16.
Consider C71A U103C, for which the self-cleavage is 0.11.
With C77U A116G the figure was 1.22.
Consider U70C A125G, for which the self-cleavage was 0.19.
With U70C A125U, the self-cleavage amounted to 1.06.
On to U70C G123A, for which the self-cleavage is 1.18.
U72A A92G: the self-cleavage was 0.26.
Turning to A78G G123U, the self-cleavage amounted to 0.25.
As for U70C U87A, the self-cleavage was 0.61.
As to U70C U87C, the self-cleavage came out at 0.09.
With U70C C113G the figure was 0.02; with U70C C113U, 0.02; with U72C A110G, 0.06.
Regarding U72G A135C, the self-cleavage turned out to be 0.33.
Regarding A78U A90G, the self-cleavage stood at 0.32.
With C76U A86U the figure was 0.08.
With C71U A91G the figure was 0.41; with A78G U103G, 0; with A78G U103A, 0.08.
Turning to A78U U122C, the self-cleavage stood at 0.14.
Turning to A78U U122A, the self-cleavage worked out at 0.31.
With U72C C105U, the self-cleavage was determined as 0.03.
Take C71A A82G: the self-cleavage was 0.26.
As to G74U U120C, the self-cleavage was 0.08.
With A78G C88A the figure was 0.17.
Turning to C76U A82G, the self-cleavage was 0.09.
With G75U U102C the figure was 0.12; with U72C C109U, 0.06.
With U72C C109A the figure was 0.07.
Turning to A78G A96G, the self-cleavage was found to be 0.24.
With C71U U87A, the self-cleavage turned out to be 0.61.
As for U70C A118U, the self-cleavage came to 0.18.
With A78U U100C the figure was 1.1; with U72A U122C, 0.12.
Take U72C A96G: the self-cleavage stood at 0.05.
On to U70C G106A, for which the self-cleavage came out at 0.01.
On to U70C U131A, for which the self-cleavage is 0.45.
For A78C A110G, the self-cleavage amounted to 0.13.
Turning to G75A A92G, the self-cleavage came to 0.08.
As to A78U C88U, the self-cleavage is 0.42.
For A78U C128A, the self-cleavage stood at 0.04.
With A78U A114G the figure was 0.11; with A78U A114U, 0.03.
As to A78G A118U, the self-cleavage was determined as 0.21.
With U70C U130C the figure was 0.21; with G74U A117G, 0.02.
With C77U A126G the figure was 1.49; with U70G U97C, 1.01.
For U72A A134U, the self-cleavage was determined as 0.27.
U72A U139A: the self-cleavage stood at 0.24.
With U72A U139C the figure was 0.23; with A78C U100A, 0.11.
Regarding U70C U102C, the self-cleavage was found to be 1.57.
With U72A U124C, the self-cleavage was 0.04.
With C77U G80A the figure was 0.37.
With U72C A117U the figure was 0.15.
With A78C A86U the figure was 0.19; with C76A A110G, 0.05.
As for C77U A125G, the self-cleavage was determined as 1.37.
Regarding U72A A116G, the self-cleavage is 0.04.
With A78C A90G the figure was 0.16.
Turning to G73A A117U, the self-cleavage was found to be 0.17.
As for G73A U122C, the self-cleavage came to 0.04.
Regarding U72A A129U, the self-cleavage turned out to be 0.23.
Take U72A A129G: the self-cleavage came to 0.08.
With A78G A82G the figure was 0.13.
With A78G G106C the figure was 0.02; with A78G G106U, 0.01.
For U70C G74U, the self-cleavage was determined as 0.17.
With U72C U87C the figure was 0.22; with U72C U87A, 0.4.
For G73C, the self-cleavage was 0.23.
For G73A, the self-cleavage was 0.07.
For the variant G73U, the self-cleavage turned out to be 0.05.
For C77U A90G, the self-cleavage was 2.13.
With U72C A135U the figure was 0.28; with U72C G93A, 0.32; with U72C A82U, 0.08.
Take U72C A82G: the self-cleavage worked out at 0.3.
With G74A U139C the figure was 0.19; with C76U U102C, 0.1; with U72C U124G, 0.07.
Turning to G75C A140G, the self-cleavage came to 0.15.
U70C U103C: the self-cleavage is 0.56.
With U72A A82C, the self-cleavage amounted to 0.35.
With C71U C105U, the self-cleavage is 0.07.
As to G74A A94G, the self-cleavage is 0.13.
Consider A78U U102A, for which the self-cleavage turned out to be 0.16.
As to A78U U120C, the self-cleavage worked out at 0.12.
As to A78U U120G, the self-cleavage is 0.37.
Take U72C U120A: the self-cleavage worked out at 0.13.
With U72C U120C the figure was 0.15; with U72C U127C, 0.07.
Consider U72G A114U, for which the self-cleavage came out at 0.6.
As to G73U A116G, the self-cleavage turned out to be 0.11.
A78G U127A: the self-cleavage amounted to 0.31.
With G73A A118U the figure was 0.04; with U72C U122C, 0.03.
Take U72C G79A: the self-cleavage amounted to 0.32.
On to U72C A90G, for which the self-cleavage was found to be 0.54.
